Test results as given in the Human Domainome abundance scans (Beltran et al. 2025).

B1: Membrane-associated guanylate kinase, WW and PDZ domain-containing protein 1, residues 352 to 401; numbered along this chain, Q96QZ7 (parent)
chain: TEELDSELELPAGWEKIEDPVYGIYYVDHINRKTQYENPVLEAKRKKQLE

Variants of: B1
Assay: abundance fitness (aPCA) (normalised: wild type 0, dead -1); higher = more abundant; growth selection in yeast, the domain comes from the species named
Conditions: Homo sapiens

Abundance fitness: each site, then its substitutions
E15: A -0.341, H -0.393, K -0.328, T -0.32, C -0.794, R -0.38, L -0.55, W -0.856, M -0.262, Q -0.229, N -0.449, Y -0.46, F -0.764, I -0.733
W14: Y -0.775, A -0.686, L -0.897, F -0.458, P -0.598, I 0.071, C -0.324, G -0.475, D -0.539, K -0.45, N 0.02, E -0.416, R -0.438, H -0.592, V -0.5, Q -0.631, T -0.254, S -0.46
S6: L -0.073, Q -0.046, H -0.203, I -0.184, M -0.179, T 0.142, A -0.033, E -0.183, K -0.148, R 0.103, F -0.231, N -0.171, W -0.44, G -0.041, V 0.062, P -0.358, D -0.141, C -0.447
E18: Q -0.794, Y -0.39, W -0.745, K -0.269, A -0.014, M -0.231, G -0.459, C -0.132, H -0.094, D -0.15, R -0.461, P -0.549, N -0.03, T 0.001, I -0.196, V -0.1, S -0.33, F -0.263, L -0.311
P20: M -0.314, E -0.426, W -0.339
K16: M -0.206, G -0.561, I -0.134, Q -0.2, H -1.03, W -0.802, Y -0.902, F -0.688, P -1.11, D -0.756, S -0.445, L -0.447, C -0.245, A -0.474, T -0.49, E -0.327, V -0.292
V21: H -0.232, M -0.517, T 0.081, A 0.097, S -0.165, R -0.012, G -0.307, L 0.026, I -0.034, P -0.322, Q -0.008, E 0.063, W -0.241, K 0.012, Y -0.162, C -0.038, N -0.056, F 0.041
D19: H -0.114, R -0.855, G -0.596, S -0.163, M -0.845, L -0.985, K -0.579, Q -0.66, Y -0.861, W -1.03, A -0.551, N -0.611, I -0.633, C -0.015
E3: P -0.744, Q -0.226, A -0.425
E7: A 0.056, T 0.053, M -0.046, F -0.236, K 0.111, P -0.217, L -0.057, R -0.037, V 0.03, D -0.039, W -0.181, N -0.228, Q -0.404, S -0.153, Y -0.399, I -0.314, G 0.05, H -0.217
P11: T -0.194, V -0.671, Q -0.38, N -0.728, K -0.153, S -0.417, G -0.268, M -0.185, H -0.554, A -0.367, R -0.494, I -0.424, E -0.377, F -0.515, W -0.519, C -0.249, D -0.382, L -0.35
D5: Q -0.128, H -0.192, C 0.032, T 0.059, A 0.047, F -0.006, W -0.303, P 0.023, M -0.421, I 0, V 0.001, K 0.086
Y22: D -0.078, P -0.24, F -0.122, E -0.004, S -0.035, N -0.199, I -0.162, Q -0.156, K 0.082, A -0.041, T -0.159, C -0.061, V -0.051, R 0.056, M -0.378, W -0.186, H 0.1, G -0.027
L10: P -0.385, S -0.382, F -0.345, E -0.654, W -0.553, V -0.221, D -0.705, G -0.574, T -0.608, Y -0.571, Q -0.296, N -0.574, H -0.751, A -0.322, M -0.286, K -0.668, I -0.148, C -0.37, R -0.626
E2: Q -0.145, W 0.113, T 0.129, N 0.372, M -0.265, P -0.266, S -0.191, R -0.095, V -0.02, Y -0.403
I17: Y -0.06, G -0.602, E -0.408, W -0.322, N -0.604, R -0.01, P -0.836, F -0.258, C -0.252, H -0.241, T -0.266, A -0.227, Q -0.809, S -0.484, M -0.041, D -0.637, V 0.072, L -0.065
A12: K -0.113, C 0.12, Q -0.237, R 0.016, P -0.098, Y -0.38, H 0.07, G -0.073, M -0.594, V 0.019, T -0.145, I 0.02, E 0.129, W -0.104, L -0.003, D -0.09, S -0.038, F 0.107
L4: N -0.333, H 0.202, I 0.349, A -0.101, Y -0.444, T -0.021, G -0.102, K 0.019, V -0.064, D -0.682, Q -0.067, W -0.237, R 0.103, S -0.037, F -0.051, E -0.239, C -0.593
G13: W -0.428, R -0.59, Y -0.183, P -0.41, T -0.898, H -0.54, C -0.339, V -0.703, E -0.425, M -0.448, I -0.63, Q -0.282, A -0.458, K -0.368, D -0.525
L8: A -0.042, N -0.561, P -0.248, E -0.2, Y -0.103, T -0.105, Q -0.016, S -0.22, I -0.361, F -0.091, M -0.023, D -0.505, W -0.12, H -0.15, K 0.095, G -0.15, V -0.266
G23: P -0.958, D -0.884, K -0.762, Q -1.34, F -0.826, S -0.79, M -0.9, R -0.56, A -1.1, E -0.801, N -0.822, H -0.822, C -1.08, V -1.2, L -1.13
E9: M -0.079, V -0.126, H -0.095, F -0.441, R -0.179, L -0.223, S -0.103, T -0.102, C -0.149, W -0.497, A 0.105, D -0.017, K -0.078, I -0.312, Q -0.137
